Publication PMC6769508
Values joined by “and” are separate entries in the source; they are usually repeats but may differ in a detail not shown here. Identical values can stand only once.

What was measured:
[1] = molecular target: TeKaiCDD, T. elongatus KaiC mutant with Ser431 and Thr432 substituted by aspartate residues (Thermosynechococcus elongatus) (UniProt Q79V60); assay: native MS; TeKaiCDD (20 µM) titrated with KaiB or SasA proteins, incubated at 37 °C for 6 h, buffer-exchanged into 150 mM ammonium acetate, pH 6.8; nanoflow ESI
[2] = molecular target: TeSasA, T. elongatus SasA (wild type, full-length) (Thermosynechococcus elongatus); assay: native MS; TeSasA or TeSasAN alone; 150 mM ammonium acetate, pH 6.8

Chain of TeKaiCDD, T. elongatus KaiC mutant with Ser431 and Thr432 substituted by aspartate residues (Thermosynechococcus elongatus) (Q79V60 other isoform, or with tags, fused parts or gaps mutant): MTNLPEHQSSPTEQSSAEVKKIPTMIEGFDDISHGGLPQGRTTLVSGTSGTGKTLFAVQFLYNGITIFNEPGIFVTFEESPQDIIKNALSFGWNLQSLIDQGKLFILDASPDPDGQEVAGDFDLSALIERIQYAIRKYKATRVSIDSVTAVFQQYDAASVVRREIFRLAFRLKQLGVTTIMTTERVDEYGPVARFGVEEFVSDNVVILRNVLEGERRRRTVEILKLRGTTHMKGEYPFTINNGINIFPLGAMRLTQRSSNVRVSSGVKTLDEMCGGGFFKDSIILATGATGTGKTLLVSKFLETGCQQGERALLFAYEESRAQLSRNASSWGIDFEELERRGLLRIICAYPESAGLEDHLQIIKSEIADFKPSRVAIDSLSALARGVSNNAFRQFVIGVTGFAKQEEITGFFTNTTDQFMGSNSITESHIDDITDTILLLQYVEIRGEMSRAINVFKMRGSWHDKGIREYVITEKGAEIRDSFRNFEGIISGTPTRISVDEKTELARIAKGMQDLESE

TeSasAN, the N-terminal domain of T. elongatus SasA (domain or fragment)
stoichiometry N (binder chains per KaiC hexamer) [1]: 2 and 3 and 4

TeSasA, T. elongatus SasA (wild type, full-length) (natural protein)
stoichiometry N [2]: 2 | stoichiometry N (binder chains per KaiC hexamer) [1]: 2 and 4 and 6
